This note sets out measurements from IntAct's records for PubMed 16777958.

Sequences and labels used below:
B1: Activated CDC42 kinase 1 (Mus musculus), O54967 (parent)
chain: MQPEEGTGWLLELLSEVQLQQYFLRLRDDLNITRLSHFEYVKNEDLEKIGMGRPGQRRLWEAVKRRKAMCKRKSWMSKVFSGKRLEAEFPSQHSQSTFRKPSPTPGSLPGEGTLQSLTCLIGEKDLRLLEKLGDGSFGVVRRGEWDAPAGKTVSVAVKCLKPDVLSQPEAMDDFIREVNAMHSLDHRNLIRLYGVVLTLPMKMVTELAPLGSLLDRLRKHQGHFLLGTLSRYAVQVAEGMAYLESKRFIHRDLAARNLLLATRDLVKIGDFGLMRALPQNDDHYVMQEHRKVPFAWCAPESLKTRTFSHASDTWMFGVTLWEMFTYGQEPWIGLNGSQILHKIDKEGERLPRPEDCPQDIYNVMVQCWAHKPEDRPTFVALRDFLLEAQPTDMRALQDFEEPDKLHIQMNDVITVIEGRAENYWWRGQNTRTLCVGPFPRNVVTSVAGLSAQDISQPLQNSFIHTGHGDSDPRHCWGFPDRIDELYLGNPMDPPDLLSVELSTSRPTQHLGRVKREPPPRPPQPAIFTQKTTYDPVSEDPDPLSSDFKRLGLRKPALPRGLWLAKPSARVPGTKADRSSGGEVTLIDFGEEPVVPTPRPCAPSLAQLAMDACSLLDKTPPQSPTRALPRPLHPTPVVDWDARPLPPPPAYDDVAQDEDDFEVCSINSTLVGAGLPAGPSQGETNYAFVPEQAQMPPALEDNLFLPPQGGGKPPSSVQTAEIFQALQQECMRQLQVPTGQLTPSPTPGGDDKPQVPPRVPIPPRPTRPRVELSPAPSGEEETSRWPGPASPPRVPPREPLSPQGSRTPSPLVPPGSSPLPHRLSSSPGKTMPTTQSFASDPKYATPQVIQAPGPRAGPCILPIVRDGRKVSSTHYYLLPERPPYLERYQRFLREAQSPEEPAALPVPPLLPPPSTPAPAAPTATVRPMPQAAPDPKANFSTNNSNPGARPPSLRAAARLPQRGCPGDGQEAARPADKVQMLQAMVHGVTTEECQAALQSHSWSVQRAAQYLKVEQLFGLGLRPRVECHKVLEMFDWNLEQAGCHLLGSCGPAHHKR

The variants in this assay derive from B1. To be noted: with NCK1, P16333-1.
As for K158A, the “effect of a mutation on the interaction” value is reported as “disrupting interaction strength”.
